Molecular target: RNA Pol II (UniProt P24928)
Assay: cell-based or functional assay

- cT of real-time PCR for GAPDH gDNA released from wells coated with the RNA Pol II antibody, compared with wells coated with the unspecific anti IgG antibody: < 5 cT
- delta between the cT's obtained using the specific RNA Pol II antibody and the unspecific anti-mouse IgG antibody (all three washing procedures): > 0 cT
- delta between the cT's obtained using the specific RNA Pol II antibody and the unspecific anti-mouse IgG antibody (washing with LS buffer and TE): 3.3 cT
Substance: anti RNA Pol II antibody (Santa Cruz sc-899)
